# Bridge positions count the residues as written; N and C are the ends. Square brackets hold non-standard residues; d marks the D form. Primed or numbered codes have the meaning given here. Side chains are listed from the residue outwards. Ends that are not written are not given here. * marks the point of attachment. Tyr(3-NO2) = N[C@@H](Cc1ccc(O)c([N+](=O)[O-])c1)C(=O)O; Phe(4-tBu) = CC(C)(C)c1ccc(C[C@H](N)C(=O)O)cc1; Tyr(3-Cl) = N[C@@H](Cc1ccc(O)c(Cl)c1)C(=O)O; Bip = N[C@@H](Cc1ccc(-c2ccccc2)cc1)C(=O)O; Tyr(3-I) = N[C@@H](Cc1ccc(O)c(I)c1)C(=O)O; Dip = N[C@H](C(=O)O)C(c1ccccc1)c1ccccc1; Phe(4-NH2) = Nc1ccc(C[C@H](N)C(=O)O)cc1; Gd^T(3) = GdDTPA attached via thiourea; d1Nal = N[C@H](Cc1cccc2ccccc12)C(=O)O; Lys(Gd^T)Gd^T = not defined here; Pen = CC(C)(S)[C@H](N)C(=O)O; Gd^G = not defined here; Gd^T = not defined here; Gd^T″ = GdDTPA-thiourea; Cbz = O=C(OCc1ccccc1)*; Dap = NC[C@H](N)C(=O)O
# What was measured:
# [1] = target: T1, human collagen type I, acid soluble, extracted from placenta (Sigma C7774) (human, UniProt P02452 162-1218; P08123 80-1119); assay: dried collagen assay
# T1 construct: tissue extract, gelled and dried in wells; also called dried human collagen; h-Collagen
# T1 sequence (P02452 162-1218 limits assumed, chain 1 of 2): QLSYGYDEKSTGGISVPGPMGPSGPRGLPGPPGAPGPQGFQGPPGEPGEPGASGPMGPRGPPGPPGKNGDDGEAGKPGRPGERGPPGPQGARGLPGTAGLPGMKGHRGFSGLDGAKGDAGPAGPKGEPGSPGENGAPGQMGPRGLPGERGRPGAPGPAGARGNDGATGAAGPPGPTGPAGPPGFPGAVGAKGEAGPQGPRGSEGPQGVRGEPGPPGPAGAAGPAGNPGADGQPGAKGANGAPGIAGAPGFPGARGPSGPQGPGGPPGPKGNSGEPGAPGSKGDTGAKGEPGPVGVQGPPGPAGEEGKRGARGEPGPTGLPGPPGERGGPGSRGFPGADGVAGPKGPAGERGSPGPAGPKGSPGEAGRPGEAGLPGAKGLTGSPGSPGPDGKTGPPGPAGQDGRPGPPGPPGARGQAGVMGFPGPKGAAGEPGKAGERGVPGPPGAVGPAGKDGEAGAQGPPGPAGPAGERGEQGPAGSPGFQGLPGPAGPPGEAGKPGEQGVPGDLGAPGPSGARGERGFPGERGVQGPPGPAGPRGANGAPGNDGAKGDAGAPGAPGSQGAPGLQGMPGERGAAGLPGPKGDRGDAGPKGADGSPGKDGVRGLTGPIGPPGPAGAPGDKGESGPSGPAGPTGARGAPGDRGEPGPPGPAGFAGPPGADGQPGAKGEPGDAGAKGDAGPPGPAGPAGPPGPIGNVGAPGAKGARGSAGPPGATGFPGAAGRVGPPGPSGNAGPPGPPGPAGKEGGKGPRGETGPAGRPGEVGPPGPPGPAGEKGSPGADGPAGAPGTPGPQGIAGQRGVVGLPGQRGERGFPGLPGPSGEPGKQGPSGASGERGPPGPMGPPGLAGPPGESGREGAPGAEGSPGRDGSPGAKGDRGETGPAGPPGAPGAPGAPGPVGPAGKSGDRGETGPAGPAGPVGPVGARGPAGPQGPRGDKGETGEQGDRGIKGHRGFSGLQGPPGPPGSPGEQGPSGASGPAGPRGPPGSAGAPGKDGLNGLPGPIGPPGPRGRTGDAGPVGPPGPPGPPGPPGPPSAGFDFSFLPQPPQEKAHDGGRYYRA
# T1 sequence (P08123 80-1119 limits assumed, chain 2 of 2): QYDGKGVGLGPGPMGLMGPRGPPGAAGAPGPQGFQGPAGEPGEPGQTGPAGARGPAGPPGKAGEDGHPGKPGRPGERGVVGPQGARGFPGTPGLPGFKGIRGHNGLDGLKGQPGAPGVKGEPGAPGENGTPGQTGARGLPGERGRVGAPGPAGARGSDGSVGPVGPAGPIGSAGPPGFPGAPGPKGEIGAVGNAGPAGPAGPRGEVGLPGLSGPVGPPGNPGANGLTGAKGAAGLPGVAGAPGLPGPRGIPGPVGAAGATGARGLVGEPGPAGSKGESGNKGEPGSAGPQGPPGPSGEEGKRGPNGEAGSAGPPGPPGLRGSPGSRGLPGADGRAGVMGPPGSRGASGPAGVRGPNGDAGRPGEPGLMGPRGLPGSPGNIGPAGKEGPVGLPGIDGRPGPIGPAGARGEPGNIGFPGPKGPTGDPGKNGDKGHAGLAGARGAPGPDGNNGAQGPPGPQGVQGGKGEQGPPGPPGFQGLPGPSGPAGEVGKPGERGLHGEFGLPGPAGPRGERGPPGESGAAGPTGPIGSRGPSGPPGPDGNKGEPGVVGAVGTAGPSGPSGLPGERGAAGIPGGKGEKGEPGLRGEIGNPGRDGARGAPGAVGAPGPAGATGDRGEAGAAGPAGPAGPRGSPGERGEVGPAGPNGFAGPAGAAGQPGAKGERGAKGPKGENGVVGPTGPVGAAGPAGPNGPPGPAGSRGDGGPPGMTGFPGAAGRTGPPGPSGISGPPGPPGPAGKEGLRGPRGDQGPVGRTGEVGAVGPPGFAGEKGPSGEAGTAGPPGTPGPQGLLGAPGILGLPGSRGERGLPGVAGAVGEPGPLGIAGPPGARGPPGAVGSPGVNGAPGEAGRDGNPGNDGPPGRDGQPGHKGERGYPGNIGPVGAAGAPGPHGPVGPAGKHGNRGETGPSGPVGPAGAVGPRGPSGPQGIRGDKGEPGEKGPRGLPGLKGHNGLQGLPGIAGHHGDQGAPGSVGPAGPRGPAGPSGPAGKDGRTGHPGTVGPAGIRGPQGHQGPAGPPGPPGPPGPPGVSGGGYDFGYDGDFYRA
# [2] = target: T2, rat collagen, acid soluble, type I, rat tail (Upstate 08-115) (rat, UniProt P02454 152-1207; P02466 86-1125); assay: dried collagen assay
# T2 construct: tissue extract, gelled and dried in wells; also called dried rat collagen
# T2 sequence (P02454 152-1207, chain 1 of 2): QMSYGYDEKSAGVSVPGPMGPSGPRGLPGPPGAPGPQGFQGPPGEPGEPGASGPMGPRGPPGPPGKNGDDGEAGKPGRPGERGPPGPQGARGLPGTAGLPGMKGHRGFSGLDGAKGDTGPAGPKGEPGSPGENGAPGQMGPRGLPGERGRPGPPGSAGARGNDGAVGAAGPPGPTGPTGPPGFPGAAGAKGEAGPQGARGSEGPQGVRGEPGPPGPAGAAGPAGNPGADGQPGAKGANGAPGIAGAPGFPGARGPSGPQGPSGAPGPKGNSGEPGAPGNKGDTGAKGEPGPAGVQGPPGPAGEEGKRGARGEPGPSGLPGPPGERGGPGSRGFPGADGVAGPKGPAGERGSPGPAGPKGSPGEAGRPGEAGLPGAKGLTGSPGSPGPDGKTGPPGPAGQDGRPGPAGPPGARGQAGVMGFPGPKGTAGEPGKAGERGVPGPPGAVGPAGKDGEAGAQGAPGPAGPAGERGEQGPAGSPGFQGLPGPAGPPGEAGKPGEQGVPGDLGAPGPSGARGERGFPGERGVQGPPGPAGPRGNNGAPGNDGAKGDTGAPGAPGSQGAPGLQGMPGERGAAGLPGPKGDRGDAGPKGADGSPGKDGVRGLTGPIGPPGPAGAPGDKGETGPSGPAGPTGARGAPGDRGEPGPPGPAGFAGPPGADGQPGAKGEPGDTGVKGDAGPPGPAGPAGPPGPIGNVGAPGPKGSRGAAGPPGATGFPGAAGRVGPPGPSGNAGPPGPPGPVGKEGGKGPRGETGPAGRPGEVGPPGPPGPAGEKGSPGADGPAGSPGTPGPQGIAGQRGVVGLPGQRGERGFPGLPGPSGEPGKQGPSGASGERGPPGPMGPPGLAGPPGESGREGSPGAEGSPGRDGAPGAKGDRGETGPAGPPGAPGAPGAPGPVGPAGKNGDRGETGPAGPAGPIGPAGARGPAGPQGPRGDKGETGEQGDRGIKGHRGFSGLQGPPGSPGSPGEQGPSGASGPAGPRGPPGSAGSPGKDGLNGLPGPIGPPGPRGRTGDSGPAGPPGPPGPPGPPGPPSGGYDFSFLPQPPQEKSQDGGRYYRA
# T2 sequence (P02466 86-1125, chain 2 of 2): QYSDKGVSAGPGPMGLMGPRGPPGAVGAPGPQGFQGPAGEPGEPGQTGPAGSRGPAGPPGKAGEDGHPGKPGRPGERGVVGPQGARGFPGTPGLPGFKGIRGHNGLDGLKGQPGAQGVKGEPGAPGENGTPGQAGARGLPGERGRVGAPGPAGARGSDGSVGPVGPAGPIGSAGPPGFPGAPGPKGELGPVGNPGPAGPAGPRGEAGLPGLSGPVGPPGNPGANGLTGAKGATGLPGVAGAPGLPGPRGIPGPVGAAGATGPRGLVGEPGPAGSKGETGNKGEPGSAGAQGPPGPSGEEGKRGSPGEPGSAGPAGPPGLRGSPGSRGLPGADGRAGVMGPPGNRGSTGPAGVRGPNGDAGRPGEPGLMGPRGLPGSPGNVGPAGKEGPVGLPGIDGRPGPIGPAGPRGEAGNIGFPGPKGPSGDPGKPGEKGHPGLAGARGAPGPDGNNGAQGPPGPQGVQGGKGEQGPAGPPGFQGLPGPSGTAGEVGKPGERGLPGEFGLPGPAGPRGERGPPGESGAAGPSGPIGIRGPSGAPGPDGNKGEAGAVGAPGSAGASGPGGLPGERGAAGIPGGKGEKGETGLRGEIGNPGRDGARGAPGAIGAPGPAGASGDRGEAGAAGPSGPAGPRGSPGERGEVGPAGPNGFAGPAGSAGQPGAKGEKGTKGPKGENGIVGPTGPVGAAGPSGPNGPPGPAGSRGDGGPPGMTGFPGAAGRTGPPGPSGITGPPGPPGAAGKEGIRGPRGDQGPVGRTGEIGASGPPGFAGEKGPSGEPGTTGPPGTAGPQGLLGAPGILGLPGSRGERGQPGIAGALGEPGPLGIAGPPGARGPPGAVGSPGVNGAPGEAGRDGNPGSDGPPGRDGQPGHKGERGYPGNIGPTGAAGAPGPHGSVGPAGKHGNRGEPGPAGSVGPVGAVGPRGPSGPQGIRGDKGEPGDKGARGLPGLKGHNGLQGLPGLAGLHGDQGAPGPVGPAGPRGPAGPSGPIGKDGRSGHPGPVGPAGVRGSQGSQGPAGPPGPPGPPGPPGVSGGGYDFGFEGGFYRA
% bound [1],% bound [2],Binder
11%,–,{Gd^T″}-GK([Gly-Gd^T″])WHCTTYFPHHYCL[Dip]G (disulfide 5-14 (inferred); not fully specified) [Compound ID 967]
56%,29%,{Gd^G}-DWTCS[dR]DEYTWHCNYE (disulfide 4-13 (inferred); not fully specified (C-terminus); reading uncertain) [Compound ID 821]
41%,20%,{Gd^T″}-DWTC[Phe(4-tBu)]GDEYTWHCNYE (disulfide 4-13 (inferred); not fully specified (C-terminus)) [Compound ID 827]
16%,–,{Gd^T}-DWTCS[dL]DEYTWHCNYE (disulfide 4-13 (inferred); not fully specified (C-terminus); reading uncertain) [Compound ID 847]
23%,9%,{Gd^T}-DWTCSGDEYTWYCNYE (disulfide 4-13 (inferred); not fully specified (C-terminus); reading uncertain) [Compound ID 842]
20%,21%,{Gd^T″}-DWTCS[dY]DEYTWHCNYE (disulfide 4-13 (inferred); not fully specified (C-terminus)) [Compound ID 829]
55%,36%,{Gd^T}-DWTC[Tyr(3-NO2)]GDEYTWHCNYE (disulfide 4-13 (inferred); not fully specified (C-terminus); reading uncertain) [Compound ID 843]
68%,48%,{Gd^T}-DWTCYGDEYTWHCNYE (disulfide 4-13 (inferred); not fully specified (C-terminus); reading uncertain) [Compound ID 844]
36%,10%,{Gd^T}-DWTCSGDEYRWHCNYE (disulfide 4-13 (inferred); not fully specified (C-terminus); reading uncertain) [Compound ID 845]
47%,20%,{Gd^G}-DWTCRGDEYTWHCNYE (disulfide 4-13 (inferred); not fully specified (C-terminus); reading uncertain) [Compound ID 822]
61%,63%,"{Gd^T″}-DWTC[Tyr(Bn,3-Cl)]GDEYTWHCNYE (disulfide 4-13 (inferred); not fully specified (C-terminus)) [Compound ID 825]"
13%,–,{Gd^T″}-DWTCS[dS]DEYTWHCNYE (disulfide 4-13 (inferred); not fully specified (C-terminus)) [Compound ID 836]
0%,–,{Gd^T(3)}-GQWHCTTRFPHH[d1Nal]CLYG (disulfide 5-14; not fully specified (C-terminus)) [Compound ID 904]
–,32%,{Gd^T(3)}-GK([Gly-Gd^T(3)])WHCTTYFPHH[Bip]CLYG (disulfide 5-14) [Compound ID 951]
16%,–,{Gd^T″}-GQWHCTTD[Phe(4-NH2)](Gd^T″)PHHYCLYG (disulfide 5-14 (inferred)) [Compound ID 885]
–,0%,{Gd^T″}-GQWHCTTD[Tyr(3-Cl)]PHHYCLYG (disulfide 5-14 (inferred); not fully specified (C-terminus)) [Compound ID 895]
14%,–,{Gd^T″}-GK([Gly-Gd^T″])WHCTTLFPHHVCLYG (disulfide 5-14 (inferred)) [Compound ID 966]
–,47%,{Gd^T″}-K(Gd^T″)K(Lys(Gd^T)Gd^T)WHCYTYFPHHYCVYG (disulfide 5-14 (inferred); reading uncertain) [Compound ID 1003]
–,2%,{Gd^T″}-GQWHCTTRFPHH[dR]CLYG (disulfide 5-14 (inferred); not fully specified (C-terminus)) [Compound ID 902]
–,3%,{Gd^T″}-GQWHCT[dS]RFPHHYCLYG (disulfide 5-14 (inferred); not fully specified (C-terminus)) [Compound ID 898]

% bound [1],% bound [2],Binder
9%,–,Cbz-GQWHCTK(Gd^T″)RFPHHYCLYG (disulfide 5-14 (inferred)) [Compound ID 940]
–,2%,{Gd^T″}-GQWHCTTRFPHH[dT]CLYG (disulfide 5-14 (inferred); not fully specified (C-terminus)) [Compound ID 905]
9%,–,{Gd^T″}-GQWHCTDRFPHHYCLYG (disulfide 5-14 (inferred)) [Compound ID 936]
–,1%,{Gd^T″}-GQWHCT[dR]RFPHHYCLYG (disulfide 5-14 (inferred); not fully specified (C-terminus)) [Compound ID 900]
–,1%,{Gd^T″}-GQWHCT[dN]RFPHHYCLYG (disulfide 5-14 (inferred); not fully specified (C-terminus)) [Compound ID 897]
77%,–,{Gd^T″}-GK([Gly-Gd^T″])WHCTTYFPHH[Dip]CLYG (disulfide 5-14 (inferred); not fully specified) [Compound ID 968]
13%,–,{Gd^T(3)}-GQWHCTTRFPHHY[Pen]LYG (disulfide 5-14; not fully specified (C-terminus)) [Compound ID 906]
12%,–,{Gd^T″}-GQWTCSGDEYAWHCNY[dE] (disulfide 5-14 (inferred); not fully specified (C-terminus)) [Compound ID 832]
13%,–,{Gd^T″}-GQWTCSGDEYTWACNYE (disulfide 5-14 (inferred); not fully specified (C-terminus)) [Compound ID 833]
15%,–,{Gd^T}-GQWACSGDEYTWHCNYE (disulfide 5-14 (inferred); not fully specified (C-terminus); reading uncertain) [Compound ID 840]
14%,–,{Gd^T″}-GK([Gly-Gd^T″])WH[dC]TTK(Gd^T″)FPHHYCLY[Bip] (disulfide 5-14) [Compound ID 1019]
–,13%,{Gd^T″}-GQWHCTTDFPH[Dap]YCLYG (disulfide 5-14) [Compound ID 886]
12%,0%,{Gd^G}-PWTCSGDEYAWHCNY[dE] (disulfide 4-13 (inferred); not fully specified (C-terminus); reading uncertain) [Compound ID 824]
35%,9%,{Gd^T}-DWTCSGDEYTWHCNYE (disulfide 4-13 (inferred); not fully specified (C-terminus); reading uncertain) [Compound ID 848]
31%,9%,{Gd^T}-DWTCSGDE[Tyr(3-I)]TWHCNYE (disulfide 4-13 (inferred); not fully specified (C-terminus); reading uncertain) [Compound ID 846]
22%,9%,{Gd^T″}-DWTCSGDEYYWHCNYE (disulfide 4-13 (inferred); not fully specified (C-terminus)) [Compound ID 834]
50%,21%,{Gd^T″}-DWTCSGDEYTWHCN[Tyr(3-I)]E (disulfide 4-13 (inferred); not fully specified (C-terminus)) [Compound ID 831]
17%,9%,{Gd^T″}-DWTCS[dA]DEYTWHCNYE (disulfide 4-13 (inferred); not fully specified (C-terminus)) [Compound ID 835]
52%,20%,{Gd^T″}-DWTC[Phe(4-CO2H)]GDEYTWHCNYE (disulfide 4-13 (inferred); not fully specified (C-terminus)) [Compound ID 828]

# From patent publication US20080044360A1 (COLLAGEN MEDICAL, published 2008)
